# Molecular target: P. falciparum cytochrome c-2 (PF3D7_1311700), recombinant (P. falciparum) (UniProt Q8I6T6)
# Assay: crystal structure
substance,measurement,value
"P. falciparum cytochrome c-2 (PF3D7_1311700), recombinant (from UniProt Q8I6T6 1-159) (natural protein)",stoichiometry N,2

# — article PMC9900762
